Experimental data reported in publication PMC3905715 (Nature Communications, 2013).

B1: mouse Rspo2 Fu1–Fu2 (mRspo2Fu1–Fu2, N37 or I39-G144), His10 [mouse] / mouse ZNRF3 ectodomain (K53-L205), biotinylated, immobilised for SPR [modified: biotin at the C-terminal BirA recognition sequence; biotin at the C-terminal BirA … (parent complex)
chain 1: ICKGCLSCSKDNGCSRCQQKLFFFLRREGMRQYGECLHSCPSGYYGHRAPDMNRCARCRIENCDSCFSKDFCTKCKVGFYLHRGRCFDECPDGFAPLDETMECVEG
chain 2: KETAFVEVVLFESSPSGDYTTHTTGLTGRFSRAGAMLSAEGEIVQMHPLGLCNNNDEEDLYEYGWVGVVKLEQPELDPKPCLTVLGKAKRAVQRGATAVIFDVSENPEAIDQLNQGSEDPLKRPVVYVKGADAIKLMNIVNKQKVARARIQHL

Variants of: B1
Assay: SPR

| Kd [nM] | Variant |
| --- | --- |
| 680 | chain 2 E57K |

Variants of: B1
Assay: SPR
Remark: another data set of the same source

| Kd [nM] | Variant |
| --- | --- |
| 1500 | chain 2 M46T |
| 5600 | chain 2 Q45E |
